The text below walks through data of PMC7035113 (Nature, 2020).

Assay [1] addresses T1, SA2-SCC1 complex (SA2 80-1060 in complex with SCC1 281-420) (human | , UniProt Q8N3U4;O60216).
T1 sequence 1: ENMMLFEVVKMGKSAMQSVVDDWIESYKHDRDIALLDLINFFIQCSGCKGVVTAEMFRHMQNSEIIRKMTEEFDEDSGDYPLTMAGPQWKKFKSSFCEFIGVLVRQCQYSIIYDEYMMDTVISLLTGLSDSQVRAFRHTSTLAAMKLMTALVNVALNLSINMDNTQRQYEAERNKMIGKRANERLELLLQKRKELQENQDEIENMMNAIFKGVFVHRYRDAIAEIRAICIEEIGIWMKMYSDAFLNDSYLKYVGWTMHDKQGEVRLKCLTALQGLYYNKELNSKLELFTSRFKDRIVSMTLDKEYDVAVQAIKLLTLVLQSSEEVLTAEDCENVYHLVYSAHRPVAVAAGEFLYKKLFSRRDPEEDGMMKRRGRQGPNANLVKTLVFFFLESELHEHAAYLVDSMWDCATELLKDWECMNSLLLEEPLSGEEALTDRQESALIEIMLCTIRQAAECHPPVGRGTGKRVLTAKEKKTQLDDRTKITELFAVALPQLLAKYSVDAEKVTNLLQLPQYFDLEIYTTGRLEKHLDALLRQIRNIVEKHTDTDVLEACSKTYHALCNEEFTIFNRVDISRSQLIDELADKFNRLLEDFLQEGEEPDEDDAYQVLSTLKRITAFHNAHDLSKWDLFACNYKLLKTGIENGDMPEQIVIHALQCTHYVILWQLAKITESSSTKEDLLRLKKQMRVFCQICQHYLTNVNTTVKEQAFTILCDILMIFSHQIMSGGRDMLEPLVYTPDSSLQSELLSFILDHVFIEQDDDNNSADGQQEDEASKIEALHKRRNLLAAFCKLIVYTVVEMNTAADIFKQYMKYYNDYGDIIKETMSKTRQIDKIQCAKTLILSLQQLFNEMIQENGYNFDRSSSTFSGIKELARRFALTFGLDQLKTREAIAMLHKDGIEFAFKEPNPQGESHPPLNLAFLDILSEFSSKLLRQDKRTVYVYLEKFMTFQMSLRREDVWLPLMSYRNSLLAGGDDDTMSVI
T1 sequence 2: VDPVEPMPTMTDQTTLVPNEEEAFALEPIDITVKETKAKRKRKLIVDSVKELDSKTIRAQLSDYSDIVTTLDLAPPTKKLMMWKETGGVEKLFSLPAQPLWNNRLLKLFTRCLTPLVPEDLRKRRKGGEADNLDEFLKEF
Nature of the assay: pull-down.

Assay [2] addresses T1, SA2-SCC1 complex (SA2 80-1060 in …). Description: peptide or protein array.
Assay [3] shares this target. Description: ITC.

B1: WAPL residues 1-600 (domain or fragment)
chain: MTSRFGKTYSRKGGNGSSKFDEVFSNKRTTLSTKWGETTFMAKLGQKRPNFKPDIQEIPKKPKVEEESTGDPFGFDSDDESLPVSSKNLAQVKCSSYSESSEAAQLEEVTSVLEANSKISHVVVEDTVVSDKCFPLEDTLLGKEKSTNRIVEDDASISSCNKLITSDKVENFHEEHEKNSHHIHKNADDSTKKPNAETTVASEIKETNDTWNSQFGKRPESPSEISPIKGSVRTGLFEWDNDFEDIRSEDCILSLDSDPLLEMKDDDFKNRLENLNEAIEEDIVQSVLRPTNCRTYCRANKTKSSQGASNFDKLMDGTSQALAKANSESSKDGLNQAKKGGVSCGTSFRGTVGRTRDYTVLHPSCLSVCNVTIQDTMERSMDEFTASTPADLGEAGRLRKKADIATSKTTTRFRPSNTKSKKDVKLEFFGFEDHETGGDEGGSGSSNYKIKYFGFDDLSESEDDEDDDCQVERKTSKKRTKTAPSPSLQPPPESNDNSQDSQSGTNNAENLDFTEDLPGVPESVKKPINKQGDKSKENTRKIFSGPKRSPTKAVYNARHWNHPDSEELPGPPVVKPQSVTVRLSSKEPNQKDDGVFKAPA
On to B1, for which the binding result in assay [1] was “binds”.

B2: CTCF array peptide Y226F (position 2) (peptide)
peptide: DVSVFDFEEEQ
Consider B2, for which, in assay [2], binding was put at a Kd of 1.6 µM.

B3: WAPL array peptide from residue 70 (position 6) (peptide)
peptide: TGDPFGFDSDD
In the case of B3, binding in assay [2] was put at a Kd of 5.9 µM.

B4: WAPL array peptide from residue 450 (position 8) (peptide)
peptide: KIKYFGFDDLS
Regarding B4, binding in assay [2] was put at a Kd of 2.17 µM.

B5: SYCP1 array peptide from residue 882 (position 15) (peptide)
peptide: RKMAFEFDINS
Consider B5, for which the Kd (commonly the free concentration of one partner at which half of the binding sites on the other are occupied at equilibrium, for simple one-to-one binding) in assay [2] came out at 6.71 µM.

B6: SYCP3 array peptide from residue 21 (position 17) (peptide)
peptide: FTRAYDFETED
B6 came in with a Kd in assay [2] of 1.96 µM.

B7: yeast WAPL array peptide from residue 108 (position 10) (peptide)
peptide: KLSAFNFLDGS
Turning to B7, binding in assay [2] was characterised by a dissociation constant (Kd) of 10.7 µM.

B8: WAPL array peptide from residue 425 (position 7) (peptide)
peptide: KLEFFGFEDHE
B8 registered a Kd in assay [2] of 12.4 µM.

B9: WAPL peptide 447-462 (third FGF motif only) (peptide)
peptide: NYKIKYFGFDDLSESE
With B9, in assay [3], the Kd is 78.7 µM; the dH was -6.81 kcal/mol; the stoichiometry N (as a rule, a count of units in the complex or per binding partner) amounted to 1.
